Measurements taken from US20140056907A1 (Regeneron, published 2014).

Legend:
[1] = target: T1, rat ASIC1 (rat, UniProt P55926 1-526); test: FACS, undifferentiated ND7 cells
T1 construct: whole, on cells; ND7 is a fusion line of mouse neuroblastoma and rat dorsal root ganglia; also called rat ASIC1a
T1 sequence (looked up): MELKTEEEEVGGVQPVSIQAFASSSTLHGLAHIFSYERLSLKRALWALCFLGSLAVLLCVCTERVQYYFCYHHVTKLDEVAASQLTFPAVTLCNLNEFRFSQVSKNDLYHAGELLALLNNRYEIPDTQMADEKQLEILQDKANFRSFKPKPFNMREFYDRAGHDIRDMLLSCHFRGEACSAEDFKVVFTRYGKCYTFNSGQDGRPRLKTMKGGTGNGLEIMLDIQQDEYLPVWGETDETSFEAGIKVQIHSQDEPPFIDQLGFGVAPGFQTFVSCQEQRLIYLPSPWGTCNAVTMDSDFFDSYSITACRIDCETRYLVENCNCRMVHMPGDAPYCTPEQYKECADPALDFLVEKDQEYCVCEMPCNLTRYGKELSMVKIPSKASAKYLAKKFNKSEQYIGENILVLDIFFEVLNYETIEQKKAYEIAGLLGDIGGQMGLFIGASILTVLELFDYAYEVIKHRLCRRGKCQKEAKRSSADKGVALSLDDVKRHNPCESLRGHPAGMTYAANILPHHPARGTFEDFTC
Source text: To further characterize anti-ASIC1 antibodies, their ability to bind either (a) a mouse fibroblast 3T3 cell line stably transfected to overexpress full length human ASIC1 (3T3/hASIC1; amino acids 1-528 of NCBI accession number NP_{—}001086.2 [SEQ ID NO:401]), (b) a 3T3 cell line stably transfected to over express full length mouse ASIC1a (3T3/mASIC1a; amino acids 1-526 of NCBI accession number NP_{—}033727), or (c) a ND7 cell line (ECACC, #92090903) that is a fusion cell line of mouse neuroblastoma and rat dorsal root ganglia that endogenously expresses rat ASIC1, was determined using flow cytometry (FACS). ND7 cells were differentiated by replacing the culture media with low-serum media (0.5% FBS) containing 1 mM dibutyryl-cAMP (Cat. No. sc-201567A, Santa Cruz Biotechnology, Inc., Santa Cruz, Calif.). FACS binding was tested for some antibodies on both undifferentiated ND7 cells and differentiated ND7 cells.
To perform the FACS binding experiments, adherent cells were collected using 1 mM EDTA in PBS, then washed, and re-suspended in cold PBS containing 5% FBS. For each binding experiment, each anti-ASIC1 antibody (at final concentrations of 10 nM of purified antibodies or 3.3 nM for antibody supernatants for binding to 3T3/hASIC1 cells and 5 nM for binding to 3T3/mASIC1a or ND7 cells) was added to 250,000 cells in 500 μL of PBS with 5% FBS. […] After incubating for 20 minutes on ice, the cells were washed and resuspended in PBS containing 5% FBS, then sorted and analyzed on a flow cytometer (FACSCalibur, BD Biosciences, San Jose, Calif.) to determine relative binding by the candidate antibodies to the tested cell lines. […] Percentage of ASIC1 signal over secondary antibody alone was calculated using FlowJo software (Tree Star, Ashland, Oreg.).

[2] = target: T2, human ASIC1 (human, UniProt P78348 1-528); test: FACS titration, 3T3/hASIC1 cells
T2 construct: Ion channel subunit expressed on 3T3 (3T3/hASIC1) or HEK293 cells (HEK/hASIC1; HEK293 CL:1F10 transient); also called hASIC1; human ASIC1a
T2 sequence: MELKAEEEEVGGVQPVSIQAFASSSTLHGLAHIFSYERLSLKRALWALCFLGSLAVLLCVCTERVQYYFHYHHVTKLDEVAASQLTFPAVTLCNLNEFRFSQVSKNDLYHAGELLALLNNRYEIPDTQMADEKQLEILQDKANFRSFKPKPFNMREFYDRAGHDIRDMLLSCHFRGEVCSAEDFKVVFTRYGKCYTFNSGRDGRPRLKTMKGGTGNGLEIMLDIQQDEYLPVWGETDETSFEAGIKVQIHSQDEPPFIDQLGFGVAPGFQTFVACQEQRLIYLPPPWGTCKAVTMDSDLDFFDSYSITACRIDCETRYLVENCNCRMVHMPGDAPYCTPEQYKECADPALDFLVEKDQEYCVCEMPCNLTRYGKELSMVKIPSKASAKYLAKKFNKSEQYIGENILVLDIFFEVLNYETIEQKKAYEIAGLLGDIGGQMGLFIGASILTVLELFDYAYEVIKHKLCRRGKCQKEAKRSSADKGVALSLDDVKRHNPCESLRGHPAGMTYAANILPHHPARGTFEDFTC
Procedure: To perform the FACS binding experiments, adherent cells were collected using 1 mM EDTA in PBS, then washed, and re-suspended in cold PBS containing 5% FBS. For each binding experiment, each anti-ASIC1 antibody ([…] or ND7 cells) was added to 250,000 cells in 500 μL of PBS with 5% FBS. After incubation for 20 minutes at room temperature, a secondary antibody which recognizes human Fc (Cat. No. 109-136-098, Jackson ImmunoResearch Laboratories, Inc., West Grove, Pa.) or mouse Fc (Cat. No. 550826, BD Biosciences, San Jose, Calif.) and is conjugated to allophycocyanin, was then added to the cell mixture at a final concentration of 13.3 nM. After incubating for 20 minutes on ice, the cells were washed and resuspended in PBS containing 5% FBS, then sorted and analyzed on a flow cytometer (FACSCalibur, BD Biosciences, San Jose, Calif.) to determine relative binding by the candidate antibodies to the tested cell lines. Histograms of cells stained with anti-ASIC1 antibodies were compared with those of cells stained with secondary antibody alone. Percentage of ASIC1 signal over secondary antibody alone was calculated using FlowJo software (Tree Star, Ashland, Oreg.).

[3] = target: T2, human ASIC1; test: cell-based or functional assay
[4] = target: T3, mouse ASIC1a (mouse, UniProt Q6NXK8 1-526); test: cell-based or functional assay
T3 sequence (looked up): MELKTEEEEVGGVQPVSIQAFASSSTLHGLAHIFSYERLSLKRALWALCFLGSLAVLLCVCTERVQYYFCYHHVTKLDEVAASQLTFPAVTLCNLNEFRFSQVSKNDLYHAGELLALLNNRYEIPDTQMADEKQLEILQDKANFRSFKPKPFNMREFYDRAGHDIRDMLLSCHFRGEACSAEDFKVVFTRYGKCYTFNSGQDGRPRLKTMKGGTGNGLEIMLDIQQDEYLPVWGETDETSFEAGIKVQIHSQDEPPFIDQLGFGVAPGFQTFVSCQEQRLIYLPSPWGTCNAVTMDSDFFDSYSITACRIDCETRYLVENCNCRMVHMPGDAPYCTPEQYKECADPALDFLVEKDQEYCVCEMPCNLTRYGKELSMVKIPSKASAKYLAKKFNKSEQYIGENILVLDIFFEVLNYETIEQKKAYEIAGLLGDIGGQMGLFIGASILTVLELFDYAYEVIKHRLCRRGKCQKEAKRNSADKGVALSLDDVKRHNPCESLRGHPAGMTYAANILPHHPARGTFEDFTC

[5] = target: T2, human ASIC1; test: cell-based or functional assay; remark: listed apart in the source

B1: H2M7103N (antibody, V domains shown)
VH: EVQLVESGGGLVQPGGSLKLSCAASGFTFSSFWMSWVRQAPGKGLEWVANIKQNGSETYYVDSVKGRFTISRDNTKNSLYLQMNSLRAEDTAIYYCARGGRIQLWSSWFDPWGQGTLVTVSS
VL: DIQMTQSPSSLSASVGDRVTITCRASQSIKNYLNWYQQKSGKAPKLLIYAASSLQSGVPSRVSGSGSGTDFTLTISSLHPEDFAAYYCQQSFSAPLTFGGGTKVEIK
notes: Chimeric: human variable, mouse constant domains; Fc isotype not spelled out; also called H2bM7103N
- binding result [1]: no binding (tested: 5 nM; gated lower than 1%)
- EC50 [2]: 1.7 nM
- Current inhibition (%) at 100 nM antibody, Q-Patch, pH 6.0 [3]: 92%
- apparent IC50, mouse ASIC1 current, Q-Patch [4]: < 25 nM
- apparent IC50, human ASIC1 current, Q-Patch [5]: ≤ 10 nM
